Laboratory results reported in article PMC10004559, “Identification of residues involved in allosteric signal transmission from amino acid binding site of pyruvate kinase muscle isoform 2” (PLOS ONE, 2023).

B1: PKM2 R106A (enzyme)
chain: not shown
notes: Pyruvate kinase muscle isoform 2 (PKM2), human, UniProt P14618, with R106A; cloned in pET28a; No tag cleavage is described
B2: PKM2 N75L (enzyme)
chain: not shown
notes: Pyruvate kinase muscle isoform 2 (PKM2), human, UniProt P14618, with N75L; cloned in pET28a; No tag cleavage is described
B3: PKM2 N70D (enzyme)
chain: not shown
notes: Pyruvate kinase muscle isoform 2 (PKM2), human, UniProt P14618, with N70D; cloned in pET28a; not shown: His6, N-terminal, kept

Target: the molecule itself
Assay: SEC; 0.1 mg/ml enzyme in storage buffer (20-50 mM Tris-HCl pH 7.5, 150 mM KCl, 5% glycerol, 0.5 mM EDTA) with 10 mM THP, incubated 15 min without or with 10 mM Asn/Asp/Val/Cys; Superdex 200 10/300 GL, 0.5 ml/min; self-association, tetramer against dimer/monomer

Row | Protein | stoichiometry N
1 | B1 | 4
2 | B2 | 4
3 | B3 | 4
